Data on two molecules can be found in US20250269047A1 (MABWELL SHANGHAI BIOSCIENCE, published 2025).

For assay [1], the target named is T1, recombinant human B7-H3-his extracellular domain protein (UniProtKB-Q5ZPR3, 1 aa-461 aa) (human, UniProt Q5ZPR3 29-461).
T1 construct: range 1-461; The printed range 1-461 starts at residue 1 and so includes the signal peptide; also called Human B7-H3 ECD; recombinant human B7-H3-his protein; not shown: C-terminal his tag
T1 sequence (looked up): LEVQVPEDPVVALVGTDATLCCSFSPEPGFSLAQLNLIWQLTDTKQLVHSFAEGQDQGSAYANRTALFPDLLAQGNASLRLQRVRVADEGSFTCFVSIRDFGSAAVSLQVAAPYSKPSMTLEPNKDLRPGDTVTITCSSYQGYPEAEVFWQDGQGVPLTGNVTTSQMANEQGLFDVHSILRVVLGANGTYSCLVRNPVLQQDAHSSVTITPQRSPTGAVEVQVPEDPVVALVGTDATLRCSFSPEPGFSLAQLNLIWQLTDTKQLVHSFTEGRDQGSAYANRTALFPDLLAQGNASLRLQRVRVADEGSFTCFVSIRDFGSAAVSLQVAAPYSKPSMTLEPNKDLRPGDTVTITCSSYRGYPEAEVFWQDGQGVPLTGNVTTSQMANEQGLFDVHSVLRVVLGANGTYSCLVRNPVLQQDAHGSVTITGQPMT
Description: BLI (Octet QKe), antibody on AHC biosensor, B7-H3-his in solution. The protocol:
Affinities of the antibodies were determined by an assay including capturing Fc fragments of the antibodies with anti-human IgG Fc capture (AHC) biosensors using Octet QKe system instrument from Fortebio. For the assay, each of the antibodies (hz10B4, hz17A3, and hz9B11 as well as control antibodies MGC-018 and Enoblituzumab) was diluted to 4 μg/ml in PBS, and was allowed to flow through the surface of an AHC biosensor (Cat.: 18-0015, PALL) for 120 s. Recombinant human B7-H3-his extracellular domain protein (Accession No.: UniProtKB-Q5ZPR3, 1 aa-461 aa) was used as a mobile phase. The association time was 300 s and the dissociation time was 300 s. When the assay was finished, data from which the response values of blank control had been deducted were fitted to a 1:1 Langmuir binding model using software, and then kinetic constants for antigen-antibody binding were calculated.
The reaction curves of hz10B4, hz17A3, hz9B11 and control antibodies MGC-018, Enoblituzumab with recombinant human B7-H3 protein are shown in FIG. 8.
Background: In BLI a coated tip is dipped into the sample, and binding shifts an interference pattern.

Assay [2] concerns the target T1, recombinant human B7-H3-his …. Description: BLI (Octet QKe), antibody on AHC biosensor, B7-H3-his 60 nM in solution. The protocol:
Affinities of the antibodies were determined by an assay including capturing Fc fragments of the antibodies with anti-human IgG Fc capture (AHC) biosensors using Octet QKe system instrument from Fortebio. For the assay, each of the chimeric antibodies ch9B11, ch10B4, ch17A3 and the control antibody Enoblituzumab was diluted to 4 μg/ml in PBS, and was allowed to flow through the surface of an AHC biosensor (Cat.: 18-0015, PALL) for 120 s. Recombinant human B7-H3 extracellular domain protein (Accession No.: UniProtKB-Q5ZPR3, 1 aa-461 aa, C-his tag) (60 nM) was used as a mobile phase. The association time was 300 s and the dissociation time was 300 s. When the assay was finished, data from which the response values of blank control had been deducted were fitted to a 1:1 Langmuir binding model using software, and then kinetic constants for antigen-antibody binding were calculated.

The target is the same in assay [3]. Kind of assay: ELISA, coated antigen 1 µg/ml. The protocol:
(§1) Plates were coated with recombinant human B7-H3-his extracellular domain protein (Accession No.: UniProtKB-Q5ZPR3, 1 aa-461 aa), recombinant cynomolgus B7-H3-his protein (Cat.: 90806-C08H, Beijing Yiqiao Shenzhou Science and Technology Co., Ltd.) and recombinant mouse B7-H3-his protein (Cat.: CM83, Beijing Yiqiao Shenzhou Science and Technology Co., Ltd.) respectively overnight at 4° C., each protein having a coating concentration of 1 μg/ml. Washed with PBS 3 times, the plates were blocked with the added 5% BSA PBS at 37° C. for 60 min, and then washed 3 times with PBST. Different dilutions of hz10B4 (diluted in a 3-fold gradient from a starting concentration of 10 μg/ml, 12 concentrations in total), hz17A3 (diluted in a 3-fold gradient from a starting concentration of 3 μg/ml, 12 concentrations in total), hz9B11 (diluted in a 3-fold gradient from a starting concentration of 10 μg/ml, 12 concentrations in total), Enoblituzumab (diluted in a 3-fold gradient from a starting concentration of 10 μg/ml, 12 concentrations in total), and MGC-018 (diluted in a 3-fold gradient from a starting concentration of 10 μg/ml, 12 concentrations in total) were added into the plates. The plates were incubated at 37° C. for 60 min, and then were washed 4 times with PBST. 1:5000 diluted HRP-anti-human Fc (Cat.: 109-035-098, Jackson Immuno Research) was added into the plates for incubation at 37° C. for 30 min. Afterwards, the plates were washed with PBST 4 times, and TMB substrate was added for color development. After incubation at 37° C. for 10 min, 2 M HCl was added to stop the reaction; and absorbances at 450 nm and at 630 nm (as reference wavelength) were read, and A450 nm-630 nm values of the wells in the plates were recorded.
(In general: An ELISA detects its analyte on a solid surface through an enzyme-linked reagent.)

In assay [4] the target is T2, recombinant cynomolgus B7-H3-his protein (Cat.: 90806-C08H, Beijing Yiqiao Shenzhou Science and Technology … (cynomolgus)).
T2 construct: Bought reagent; also called recombinant monkey B7-H3
Description: ELISA, coated antigen 1 µg/ml. The protocol:
as §1

Assay [5] has as its target T3, recombinant mouse B7-H3-his protein (Cat.: CM83, Beijing Yiqiao Shenzhou Science and Technology Co., Ltd.) (mouse, UniProt Q8VE98 29-244, limits assumed).
T3 construct: Bought reagent; not shown: his tag
T3 sequence (looked up): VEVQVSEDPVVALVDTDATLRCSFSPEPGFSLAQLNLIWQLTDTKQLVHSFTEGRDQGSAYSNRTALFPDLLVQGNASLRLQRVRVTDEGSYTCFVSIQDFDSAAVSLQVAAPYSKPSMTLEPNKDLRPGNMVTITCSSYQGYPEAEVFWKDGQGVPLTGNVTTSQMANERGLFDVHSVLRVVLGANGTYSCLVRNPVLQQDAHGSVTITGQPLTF
Description: ELISA, plate coated with mouse B7-H3-his 1 µg/ml. As to the method:
as §1

The target of assay [6] is T3, recombinant mouse B7-H3-his protein …. Description: ELISA, plate coated with 1 µg/ml recombinant mouse B7-H3-his, HRP-anti-human Fc. The protocol: Plates were coated with recombinant human B7-H3-his extracellular domain protein (Accession No.: UniProtKB-Q5ZPR3, 1 aa-461 aa), recombinant cynomolgus B7-H3-his protein (Cat.: 90806-C08H, Beijing Yiqiao Shenzhou Science and Technology Co., Ltd.) and recombinant mouse B7-H3-his protein (Cat.: CM83, Beijing Yiqiao Shenzhou Science and Technology Co., Ltd.) respectively overnight at 4° C., each protein having a coating concentration of 1 μg/ml. Washed with PBS 3 times, the plates were blocked with the added 5% BSA PBS at 37° C. for 60 min, and then washed 3 times with PBST. […] After incubation at 37° C. for 10 min, 2 M HCl was added to stop the reaction; and absorbances at 450 nm and at 630 nm (as reference wavelength) were read, and A450 nm-630 nm values of the wells in the plates were recorded.

B1: Enoblituzumab (antibody, human IgG1, kappa, V domains shown)
VH: EVQLVESGGGLVQPGGSLRLSCAASGFTFSSFGMHWVRQAPGKGLEWVAYISSDSSAIYYADTVKGRFTISRDNAKNSLYLQMNSLRDEDTAVYYCGRGRENIYYGSRLDYWGQGTTVTVSS
VL: DIQLTQSPSFLSASVGDRVTITCKASQNVDTNVAWYQQKPGKAPKALIYSASYRYSGVPSRFSGSGSGTDFTLTISSLQPEDFATYYCQQYNNYPFTFGQGTKLEIKR
notes: expressed in HEK293 by the applicants; also called control antibody Enoblituzumab; Positive Control (PC)
As for B1, in assay [1], the Kd came out at 0.95 nM, the koff came to 0.000276 s⁻¹ and the association rate constant (kon) is 291000 M⁻¹ s⁻¹. In addition, in assay [2], the dissociation constant (Kd) was determined as 0.773 nM, the koff was found to be 0.000256 s⁻¹ and the kon stood at 331000 M⁻¹ s⁻¹. Further, in assay [3], the concentration giving a half-maximal response (EC50) was 0.117 nM. The EC50 in assay [4] came to 0.134 nM. The binding result in assay [5] is listed as “no binding (tested: 10 µg/ml (highest concentration tested))”.

B2: MGC-018 (antibody, human IgG1, kappa, V domains shown)
VH: EVQLVESGGGLVKPGGSLRLSCAASGFTFSSYGMSWVRQAPGKGLEWVATINSGGSNTYYPDSLKGRFTISRDNAKNSLYLQMNSLRAEDTAVYYCARHDGGAMDYWGQGTTVTVSS
VL: DIQMTQSPSSLSASVGDRVTITCRASESIYSYLAWYQQKPGKAPKLLVYNTKTLPEGVPSRFSGSGSGTDFTLTISSLQPEDFATYYCQHHYGTPPWTFGQGTRLEIKR
notes: naked antibody expressed in HEK293 by the applicants; also called control antibody MGC-018
Take B2: in assay [1], the Kd was found to be 0.597 nM, the koff was 0.000517 s⁻¹ and the kon amounted to 865000 M⁻¹ s⁻¹. For the same molecule, the binding result in assay [6] was “no binding”. For the same molecule, in assay [3], the EC50 was 0.117 nM. The EC50 in assay [4] amounted to 0.0782 nM.

The term Kd denotes the equilibrium constant for the complex coming apart. A word on the koff: it is the first-order rate constant of dissociation. By kon is commonly meant a measure of how fast the partners come together. The EC50 is the concentration giving half of the maximal effect.
